# Experimental data published in IntAct's records for PubMed 15949802.
# B1: Peroxisomal targeting signal receptor (Saccharomyces cerevisiae), P35056 (parent)
# chain: MDVGSCSVGNNPLAQLHKHTQQNKSLQFNQKNNGRLNESPLQGTNKPGISEAFISNVNAISQENMANMQRFINGEPLIDDKRRMEIGPSSGRLPPFSNVHSLQTSANPTQIKGVNDISHWSQEFQGSNSIQNRNADTGNSEKAWQRGSTTASSRFQYPNTMMNNYAYASMNSLSGSRLQSPAFMNQQQSGRSKEGVNEQEQQPWTDQFEKLEKEVSENLDINDEIEKEENVSEVEQNKPETVEKEEGVYGDQYQSDFQEVWDSIHKDAEEVLPSELVNDDLNLGEDYLKYLGGRVNGNIEYAFQSNNEYFNNPNAYKIGCLLMENGAKLSEAALAFEAAVKEKPDHVDAWLRLGLVQTQNEKELNGISALEECLKLDPKNLEAMKTLAISYINEGYDMSAFTMLDKWAETKYPEIWSRIKQQDDKFQKEKGFTHIDMNAHITKQFLQLANNLSTIDPEIQLCLGLLFYTKDDFDKTIDCFESALRVNPNDELMWNRLGASLANSNRSEEAIQAYHRALQLKPSFVRARYNLAVSSMNIGCFKEAAGYLLSVLSMHEVNTNNKKGDVGSLLNTYNDTVIETLKRVFIAMNRDDLLQEVKPGMDLKRFKGEFSF
# partner: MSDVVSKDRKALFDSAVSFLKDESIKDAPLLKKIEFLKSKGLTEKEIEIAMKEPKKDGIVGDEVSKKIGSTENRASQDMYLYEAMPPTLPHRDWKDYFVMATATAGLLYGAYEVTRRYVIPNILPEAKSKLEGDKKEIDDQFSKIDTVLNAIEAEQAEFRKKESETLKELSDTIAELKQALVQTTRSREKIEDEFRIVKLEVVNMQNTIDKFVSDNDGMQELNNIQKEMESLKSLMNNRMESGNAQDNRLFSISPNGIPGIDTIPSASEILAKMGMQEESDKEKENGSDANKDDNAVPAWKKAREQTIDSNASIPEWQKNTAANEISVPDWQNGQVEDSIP
# Variants of: B1
# Settings: with pex14_yeast PEX14, P53112
row,Variant,effect of a mutation on the interaction
1,W120A;W204A,disrupting interaction

# Variants of: B1
# Settings: with pex14_yeast PEX14, P53112
# Remark: another data set of the same source
row,Variant,effect of a mutation on the interaction
1,W204A,decreasing interaction
